Laboratory results published in the supplement of paper PMC9732359.
± gives the uncertainty stated by the source.

Test: protein stability index of a GFP-peptide fusion (yeast GPS) (PSI 1-4); higher = more stable; sorted into four equal gates, so the index is relative within each strain
Conditions: doa10∆
In short: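 For each peptide, the protein stability index sums the read frequency in every gate after multiplying it by the gate number. Read frequencies came from plasmids that were PCR-amplified from each gate and Illumina-sequenced, with reads assigned to strains by barcodes. The gates were four equal bins of GFP/Cherry fluorescence ratio applied to mid-log yeast in leucine-free medium carrying a pooled library of tiled 17-residue yeast protein peptides fused downstream of GFP on a Cherry-expressing plasmid.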
KGHKFNNTKAGRRKTWK [RPL15A] showed a protein stability index of 2.79 ± 0.063.
In the case of KGKYRNRRWTQRRGPLV [RPL4A], the protein stability index is reported as 2.97 ± 0.17.
Sequence KGSSLASAASEAIRDPK [SSN8] has a protein stability index of 2.43 ± 0.053.
With KGTNDEGTSISVHLIEC [YCS4] the protein stability index was 2.78 ± 0.094.
Work on KGVTEKDAVDYSKIPNI [RRP6] yielded a protein stability index of 3.24 ± 0.12.
For KHYKNIPRNSPLSDLKK [RPC82], the protein stability index was 2.88 ± 0.15.
Sequence KIADNISKDENEDQFLE [YDL116W/NUP84] has a protein stability index of 2.92 ± 0.14.
With KIATRGVMLWKEFDETI [FAS1] the protein stability index was 3.02 ± 0.22.
KIDGNPDELIKAGVEAI [PRE5] showed a protein stability index of 3.32 ± 0.17.
With KIDLASGKITDFIKFDA [RPS4A] the protein stability index was 3.26 ± 0.072.
KIESSVESQFSAGRLYA [RPS8A] showed a protein stability index of 2.81 ± 0.11.
KIFIAVVWYQRLTMGNV [RRI2] gave a protein stability index of 1.3 ± 0.044.
Sequence KIFQTTPEKDLFIGLFT [YCS4] has a protein stability index of 2.1 ± 0.088.
KIFVETKFSKLIGRPPL [FAS1] showed a protein stability index of 1.97 ± 0.29.
With KIITSRPLQKIMLLQLE [SIN4] the protein stability index was 2.12 ± 0.06.
KIKPYVRSFSKALDELK [LRP1] showed a protein stability index of 2.52 ± 0.04.
Work on KIMPKDILQITKKPLMV [SIR4] yielded a protein stability index of 2.62 ± 0.088.
For KIRCFRYISTLTLYLFQ [IRR1], the protein stability index was 1.69 ± 0.073.
In the case of KITSPIRSVALNDSNVK [RRP42], the protein stability index is reported as 2.6 ± 0.12.
In the case of KIYINLALGSHNKLIQF [SSN2], the protein stability index is reported as 2.57 ± 0.17.
Work on KKAFTSYDRTLLIADSR [RPS16A] yielded a protein stability index of 2.25 ± 0.044.
Work on KKASEISVSSRSDREYP [SRP14] yielded a protein stability index of 3.19 ± 0.096.
For KKCHRLLWTPKKLEITS [RPR2], the protein stability index was 2.35 ± 0.045.
For KKDVEKELPDKVEKVVK [SNF2], the protein stability index was 3.52 ± 0.23.
Sequence KKEEEEQLSEEDAKLKT [RPN1] has a protein stability index of 3.19 ± 0.16.
In the case of KKEEKLNIGKNFAHSDS [SIR4], the protein stability index is reported as 3.18 ± 0.059.
KKEENETISNVAKTAPN [SNF2] showed a protein stability index of 2.86 ± 0.072.
KKEKLDSGEVDADGDID [DPB4] gave a protein stability index of 3.05 ± 0.15.
For KKEKLKQENSTLLKKAN [RPC82], the protein stability index was 2.3 ± 0.074.
Sequence KKFGGKGARSRFQKSYR [RPS16A] has a protein stability index of 3.29 ± 0.12.
With KKIFGTGKRLAKKVARR [RPS24A] the protein stability index was 3.52 ± 0.064.
With KKIIKCDEHMGLSLAGL [PRE5] the protein stability index was 2.94 ± 0.079.
Work on KKIMDETPSRLLLSPDQ [ITC1] yielded a protein stability index of 3.04 ± 0.056.
Work on KKKAFTKYSAKYAQDGA [RPL3] yielded a protein stability index of 3.03 ± 0.12.
KKLSINSAARNIQHLLY [PRE7] gave a protein stability index of 2.68 ± 0.051.
KKMGVPYAIIKGKARLG [RPL8B] showed a protein stability index of 2.15 ± 0.15.
Sequence KKMVYVLDSMTKEELES [SRP54] has a protein stability index of 3.02 ± 0.086.
Work on KKNIDYQNRSTRSQFCL [RRI1] yielded a protein stability index of 3.01 ± 0.039.
Sequence KKNRDKKIFGTGKRLAK [RPS24A] has a protein stability index of 3.4 ± 0.05.
Work on KKPLSMALNKVLITDHI [CDC53] yielded a protein stability index of 1.93 ± 0.04.
With KKRNPSKQNGSKFHFSW [PRP28] the protein stability index was 2.78 ± 0.054.
For KKRRGSRIYKTIKVAGT [SNU114], the protein stability index was 1.6 ± 0.042.
KKSGSLTFNSKNIQSKD [FAS2] gave a protein stability index of 3.2 ± 0.12.
In the case of KKVNGTSYKKWSFDLPE [PRP8], the protein stability index is reported as 2.2 ± 0.07.
With KKVVLRLECVKCKTRAQ [RPL42A] the protein stability index was 2.3 ± 0.12.

Same assay, conditions: pdr5∆
For KGHKFNNTKAGRRKTWK [RPL15A], the protein stability index was 2.93 ± 0.081.
With KGKYRNRRWTQRRGPLV [RPL4A] the protein stability index was 3.29 ± 0.18.
Sequence KGSSLASAASEAIRDPK [SSN8] has a protein stability index of 2.62 ± 0.063.
KGTNDEGTSISVHLIEC [YCS4] showed a protein stability index of 2.73 ± 0.071.
In the case of KGVTEKDAVDYSKIPNI [RRP6], the protein stability index is reported as 3.18 ± 0.092.
For KHYKNIPRNSPLSDLKK [RPC82], the protein stability index was 2.97 ± 0.17.
KIADNISKDENEDQFLE [YDL116W/NUP84] gave a protein stability index of 2.98 ± 0.13.
KIATRGVMLWKEFDETI [FAS1] gave a protein stability index of 2.94 ± 0.22.
KIDGNPDELIKAGVEAI [PRE5] gave a protein stability index of 3.44 ± 0.2.
Work on KIDLASGKITDFIKFDA [RPS4A] yielded a protein stability index of 3.21 ± 0.078.
For KIESSVESQFSAGRLYA [RPS8A], the protein stability index was 2.85 ± 0.087.
KIFIAVVWYQRLTMGNV [RRI2] gave a protein stability index of 1.25 ± 0.038.
With KIFQTTPEKDLFIGLFT [YCS4] the protein stability index was 1.84 ± 0.055.
Work on KIFVETKFSKLIGRPPL [FAS1] yielded a protein stability index of 2.54 ± 0.093.
KIITSRPLQKIMLLQLE [SIN4] showed a protein stability index of 2.08 ± 0.052.
KIKPYVRSFSKALDELK [LRP1] gave a protein stability index of 2.95 ± 0.037.
With KIMPKDILQITKKPLMV [SIR4] the protein stability index was 2.79 ± 0.17.
Work on KIRCFRYISTLTLYLFQ [IRR1] yielded a protein stability index of 1.47 ± 0.077.
KITSPIRSVALNDSNVK [RRP42] gave a protein stability index of 2.42 ± 0.11.
KIYINLALGSHNKLIQF [SSN2] showed a protein stability index of 1.83 ± 0.078.
KKAFTSYDRTLLIADSR [RPS16A] gave a protein stability index of 2.48 ± 0.073.
KKASEISVSSRSDREYP [SRP14] gave a protein stability index of 3.1 ± 0.12.
Work on KKCHRLLWTPKKLEITS [RPR2] yielded a protein stability index of 2.48 ± 0.044.
With KKDVEKELPDKVEKVVK [SNF2] the protein stability index was 3.47 ± 0.14.
KKEEEEQLSEEDAKLKT [RPN1] gave a protein stability index of 3.24 ± 0.07.
KKEEKLNIGKNFAHSDS [SIR4] showed a protein stability index of 2.97 ± 0.057.
Work on KKEENETISNVAKTAPN [SNF2] yielded a protein stability index of 3.03 ± 0.065.
For KKEKLDSGEVDADGDID [DPB4], the protein stability index was 3.4 ± 0.17.
In the case of KKEKLKQENSTLLKKAN [RPC82], the protein stability index is reported as 2.81 ± 0.093.
In the case of KKFGGKGARSRFQKSYR [RPS16A], the protein stability index is reported as 3.27 ± 0.097.
KKIFGTGKRLAKKVARR [RPS24A] showed a protein stability index of 3.34 ± 0.057.
Work on KKIIKCDEHMGLSLAGL [PRE5] yielded a protein stability index of 3.2 ± 0.076.
With KKIMDETPSRLLLSPDQ [ITC1] the protein stability index was 3.37 ± 0.065.
KKKAFTKYSAKYAQDGA [RPL3] gave a protein stability index of 3.38 ± 0.09.
With KKLSINSAARNIQHLLY [PRE7] the protein stability index was 2.88 ± 0.062.
In the case of KKMGVPYAIIKGKARLG [RPL8B], the protein stability index is reported as 2.12 ± 0.15.
In the case of KKMVYVLDSMTKEELES [SRP54], the protein stability index is reported as 2.85 ± 0.085.
For KKNIDYQNRSTRSQFCL [RRI1], the protein stability index was 2.94 ± 0.04.
Work on KKNRDKKIFGTGKRLAK [RPS24A] yielded a protein stability index of 3.23 ± 0.039.
KKPLSMALNKVLITDHI [CDC53] gave a protein stability index of 2.24 ± 0.038.
KKRNPSKQNGSKFHFSW [PRP28] showed a protein stability index of 2.62 ± 0.05.
KKRRGSRIYKTIKVAGT [SNU114] gave a protein stability index of 1.78 ± 0.045.
Sequence KKSGSLTFNSKNIQSKD [FAS2] has a protein stability index of 3.29 ± 0.13.
